B1: Protein S100-G, residues 1 to 79; numbered along this chain, P02633 (parent)
chain: MSAKKSPEELKGIFEKYAAKEGDPNQLSKEELKLLLQTEFPSLLKGPSTLDELFEELDKNGDGEVSFEEFQVLVKKISQ

± gives the uncertainty stated by the source.

The data set covers variants of B1. As to the kind of experiment: abundance fitness (aPCA) (normalised: wild type 0, dead -1); higher = more abundant; growth selection in yeast, the domain comes from the species named. As to conditions: Bos taurus.
Regarding MSAKKSPEELKGIFEKYAAKEGDPNQLRKEELKLLLQTEFPSLLKGPSTLDELFEELDKNGDGEVSFEEFQVLVKKISQ [S28R], the abundance fitness is -0.065 ± 0.066.

For the variant MSAKKSPEELKGIFEKYAAKEGDPNQLHKEELKLLLQTEFPSLLKGPSTLDELFEELDKNGDGEVSFEEFQVLVKKISQ [S28H], the abundance fitness is -0.041 ± 0.081.

MSAKKSPEELKGIFEKYAAKEGDPNQLQKEELKLLLQTEFPSLLKGPSTLDELFEELDKNGDGEVSFEEFQVLVKKISQ [S28Q]: the abundance fitness was -0.008 ± 0.085.

As to MSAKKSPEELKGIFEKYAAKEGDPNQLLKEELKLLLQTEFPSLLKGPSTLDELFEELDKNGDGEVSFEEFQVLVKKISQ [S28L], the abundance fitness is -0.208 ± 0.068.

As to MSAKKSPEELKGIFEKYAAKEGDPNQLDKEELKLLLQTEFPSLLKGPSTLDELFEELDKNGDGEVSFEEFQVLVKKISQ [S28D], the abundance fitness is 0.037 ± 0.093.

As to MSAKKSPEELKGIFEKYAAKEGDPNQLPKEELKLLLQTEFPSLLKGPSTLDELFEELDKNGDGEVSFEEFQVLVKKISQ [S28P], the abundance fitness was -0.033 ± 0.078.

On to MSAKKSPEELKGIFEKYAAKEGDPNQLFKEELKLLLQTEFPSLLKGPSTLDELFEELDKNGDGEVSFEEFQVLVKKISQ [S28F], for which the abundance fitness is -0.425 ± 0.089.

MSAKKSPEELKGIFEKYAAKEGDPNQLCKEELKLLLQTEFPSLLKGPSTLDELFEELDKNGDGEVSFEEFQVLVKKISQ [S28C]: the abundance fitness is -0.07 ± 0.088.

As to MSAKKSPEELKGIFEKYAAKEGDPNQLIKEELKLLLQTEFPSLLKGPSTLDELFEELDKNGDGEVSFEEFQVLVKKISQ [S28I], the abundance fitness was -0.282 ± 0.089.

As for MSAKKSPEELKGIFEKYAAKEGDPNQLVKEELKLLLQTEFPSLLKGPSTLDELFEELDKNGDGEVSFEEFQVLVKKISQ [S28V], the abundance fitness was -0.156 ± 0.073.

MSAKKSPEELKGIFEKYAAKEGDPNQLEKEELKLLLQTEFPSLLKGPSTLDELFEELDKNGDGEVSFEEFQVLVKKISQ [S28E]: the abundance fitness was -0.05 ± 0.1.

For MSAKKSPEELKGIFEKYAAKEGDPNQLNKEELKLLLQTEFPSLLKGPSTLDELFEELDKNGDGEVSFEEFQVLVKKISQ [S28N], the abundance fitness was -0.049 ± 0.084.

Turning to MSAKKSPEELKGIFEKYAAKEGDPNQLMKEELKLLLQTEFPSLLKGPSTLDELFEELDKNGDGEVSFEEFQVLVKKISQ [S28M], the abundance fitness was -0.218 ± 0.088.

Regarding MSAKKSPEELKGIFEKYAAKEGDPNQLTKEELKLLLQTEFPSLLKGPSTLDELFEELDKNGDGEVSFEEFQVLVKKISQ [S28T], the abundance fitness was -0.083 ± 0.072.

In the case of MSAKKSPEELKGIFEKYAAKEGDPNQLAKEELKLLLQTEFPSLLKGPSTLDELFEELDKNGDGEVSFEEFQVLVKKISQ [S28A], the abundance fitness was found to be 0 ± 0.071.

For MSAKKSPEELKGIFEKYAAKEGDPNQLYKEELKLLLQTEFPSLLKGPSTLDELFEELDKNGDGEVSFEEFQVLVKKISQ [S28Y], the abundance fitness is -0.277 ± 0.089.

Regarding MSAKKSPEELKGIFEKYAAKEGDPNQLWKEELKLLLQTEFPSLLKGPSTLDELFEELDKNGDGEVSFEEFQVLVKKISQ [S28W], the abundance fitness is -0.465 ± 0.091.

As to MSAKKSPEELKGIFEKYAAKEGDPNQLKKEELKLLLQTEFPSLLKGPSTLDELFEELDKNGDGEVSFEEFQVLVKKISQ [S28K], the abundance fitness was -0.048 ± 0.091.

With MSAKKSPEELKGIFEKYAAKEGDPNMLSKEELKLLLQTEFPSLLKGPSTLDELFEELDKNGDGEVSFEEFQVLVKKISQ [Q26M], the abundance fitness worked out at 0.002 ± 0.083.

With MSAKKSPEELKGIFEKYAAKEGDPNNLSKEELKLLLQTEFPSLLKGPSTLDELFEELDKNGDGEVSFEEFQVLVKKISQ [Q26N], the abundance fitness is -0.048 ± 0.083.

As to MSAKKSPEELKGIFEKYAAKEGDPNYLSKEELKLLLQTEFPSLLKGPSTLDELFEELDKNGDGEVSFEEFQVLVKKISQ [Q26Y], the abundance fitness amounted to 0.021 ± 0.082.

Turning to MSAKKSPEELKGIFEKYAAKEGDPNSLSKEELKLLLQTEFPSLLKGPSTLDELFEELDKNGDGEVSFEEFQVLVKKISQ [Q26S], the abundance fitness came to 0.042 ± 0.064.

As for MSAKKSPEELKGIFEKYAAKEGDPNPLSKEELKLLLQTEFPSLLKGPSTLDELFEELDKNGDGEVSFEEFQVLVKKISQ [Q26P], the abundance fitness is -0.523 ± 0.078.

In the case of MSAKKSPEELKGIFEKYAAKEGDPNWLSKEELKLLLQTEFPSLLKGPSTLDELFEELDKNGDGEVSFEEFQVLVKKISQ [Q26W], the abundance fitness came out at 0.037 ± 0.089.

In the case of MSAKKSPEELKGIFEKYAAKEGDPNVLSKEELKLLLQTEFPSLLKGPSTLDELFEELDKNGDGEVSFEEFQVLVKKISQ [Q26V], the abundance fitness was -0.081 ± 0.071.

In the case of MSAKKSPEELKGIFEKYAAKEGDPNRLSKEELKLLLQTEFPSLLKGPSTLDELFEELDKNGDGEVSFEEFQVLVKKISQ [Q26R], the abundance fitness worked out at 0.054 ± 0.068.

MSAKKSPEELKGIFEKYAAKEGDPNQESKEELKLLLQTEFPSLLKGPSTLDELFEELDKNGDGEVSFEEFQVLVKKISQ [L27E]: the abundance fitness is -1.04 ± 0.094.

With MSAKKSPEELKGIFEKYAAKEGDPNQCSKEELKLLLQTEFPSLLKGPSTLDELFEELDKNGDGEVSFEEFQVLVKKISQ [L27C], the abundance fitness was 0.006 ± 0.091.

MSAKKSPEELKGIFEKYAAKEGDPNQYSKEELKLLLQTEFPSLLKGPSTLDELFEELDKNGDGEVSFEEFQVLVKKISQ [L27Y]: the abundance fitness is -0.764 ± 0.092.

For the variant MSAKKSPEELKGIFEKYAAKEGDPNQNSKEELKLLLQTEFPSLLKGPSTLDELFEELDKNGDGEVSFEEFQVLVKKISQ [L27N], the abundance fitness is -0.681 ± 0.099.

Take MSAKKSPEELKGIFEKYAAKEGDPNQMSKEELKLLLQTEFPSLLKGPSTLDELFEELDKNGDGEVSFEEFQVLVKKISQ [L27M]: the abundance fitness was -0.054 ± 0.085.

Take MSAKKSPEELKGIFEKYAAKEGDPNQFSKEELKLLLQTEFPSLLKGPSTLDELFEELDKNGDGEVSFEEFQVLVKKISQ [L27F]: the abundance fitness was -0.48 ± 0.093.

MSAKKSPEELKGIFEKYAAKEGDPNQHSKEELKLLLQTEFPSLLKGPSTLDELFEELDKNGDGEVSFEEFQVLVKKISQ [L27H]: the abundance fitness was -0.751 ± 0.092.

Regarding MSAKKSPEELKGIFEKYAAKEGDPNQASKEELKLLLQTEFPSLLKGPSTLDELFEELDKNGDGEVSFEEFQVLVKKISQ [L27A], the abundance fitness was -0.137 ± 0.077.

The values above are taken from the Human Domainome abundance scans (Beltran et al. 2025).
